Km and kcat data for two proteins are collected here from PMC4487810.

Positions count from the first letter of the chain named. Names and notes keep the numbering of the source.

Substrate in the data set: O=P(O)(O)CCO
The experiment in a line: purified protein. The conditions noted are these: O2 co-substrate.

Where [1] appears, read: enzyme saturated with Fe(II) (more than 1 equivalent).

A word on the Km: it is the concentration of substrate that gives half-maximal velocity. For orientation: kcat means the maximal rate divided by the concentration of active sites.

B1: 2-hydroxyethylphosphonate dioxygenase (HEPD) (Streptomyces viridochromogenes DSM 40736) (protein)
chain: MRIDPFKLAHWMNARKYTAAQTADLAGLPLDDLRRLLGDEANEPDPAAATALAEALSVEPSQLAADAHRNLTVVHKSAEEMHASRRPIQRDGIHFYNYYTLAAPEGRVAPVVLDILCPSDRLPALNNGHLEPAITVNLGPGDINGRWGEEITPQTWRVLHANHGGDRWITGDSYVEPSYCPHSYSLAGDAPARIVSYTAQSNISPLMTEANNWSTGAFEEALKALSGKVSAGSVLDLFLARRAHTRTSAAEAAGVPPADLEAALRSPASETGLTVLRTLGRALGFDYRVLLPADDQHDGVGKTWTTIEDSRRSRRTFGTYEAASMASAAHLPDLVGSFLRVDADGRGADLIDHAENHYVVTEGRLTLEWDGPDGPASVELEPDGSAWTGPFVRHRWHGTGTVLKFGSGAHLGYQDWLELTNTFEPAATLRRGRRDLAGWGYDN
For the protein B1, for the setting “Fe(II)”, the Km came out at 8 ± 1 µM and the kcat turned out to be 0.3 ± 0.01 s⁻¹. In addition, where the note is “Fe(II), labelled compound”, the Km came out at 10 ± 2 µM and the kcat amounted to 0.31 ± 0.01 s⁻¹.

B2: 2-hydroxyethylphosphonate dioxygenase (HEPD) (Streptomyces viridochromogenes DSM 40736; E176H) (protein)
chain: B1 chain with E176H
Turning to B2, under setting [1], the Km came to 23 ± 3 µM and the turnover number (kcat) is 0.38 ± 0.01 s⁻¹.
